In patent publication US20240034816A1 (Sanofi, published 2024):
Values joined by “and” are separate entries in the source; they are usually repeats but may differ in a detail not shown here. Equal entries are not always repeated.

Tests used:
recombinant human BCMA [1] = biological target: T1, recombinant human BCMA (human, UniProt Q02223 1-54); assay: SPR (Biacore 8K), NKCE captured by anti-human Fc, antigen as analyte, 1:1 model; mean of 3 experiments
Method: (§1) Measurements were performed in multicycle kinetics experiments for each antibody using a Biacore 8K instrument. In each multicycle experiment the antibodies were captured via an anti-hum a Fc antibody immobilized on a series S CM5 sensor chip (human antibody capture kit, Cytiva, Uppsala, Catalog No. BR1008-39).
(§2) The antigens, diluted as described above (concentration range 0.1 nM to 50 nM), were injected at a flow rate of 60 μL/min for 240 sec followed by a dissociation phase of 400 sec. All analyte concentrations were run in duplicate together with multiple buffer blanks for double referencing. Regeneration of the capture surface was performed with regeneration solution (3 mol/L MgCl2) for 60 sec at 30 μL/min. Binding kinetics data were evaluated with the Biacore 8K Evaluation Software version 1.1.1.7442 using a 1:1 binding model with mass transport limitation.

[2] = biological target: T2, recombinant cynomolgus NKp46 extracellular domain with C-terminal Flag-M2 tag (cynomolgus, UniProt Q95JB9 22-254); assay: as above
T2 construct: range 22-254; also called cyno NKp46; not shown: C-terminal Flag-M2 tag
T2 sequence (Q95JB9 22-254): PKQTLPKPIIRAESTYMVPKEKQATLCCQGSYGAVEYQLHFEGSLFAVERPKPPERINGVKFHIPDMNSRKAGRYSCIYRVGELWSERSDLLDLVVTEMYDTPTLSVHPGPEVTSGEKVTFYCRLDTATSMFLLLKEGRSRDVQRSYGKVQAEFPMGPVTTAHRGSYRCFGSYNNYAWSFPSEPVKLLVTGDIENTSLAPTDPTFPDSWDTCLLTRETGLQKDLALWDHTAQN
Method: as §1, §2

cyno BCMA (PPB-17990) [3] = biological target: T3, cyno BCMA (PPB-17990) (cynomolgus, UniProt A0A2K5UD97 1-53); assay: as above
T3 construct: also called cynomolgus BCMA
T3 sequence (A0A2K5UD97 entry or part of it): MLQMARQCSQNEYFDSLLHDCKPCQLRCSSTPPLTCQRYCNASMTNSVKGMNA
Method: as §1, §2

[4] = biological target: T4, recombinant human NKp46 extracellular domain (Gln22-Asn255) with C-terminal 6xHis tag (human, UniProt O76036 22-255); assay: as above
T4 construct: range 22-255; also called huNKp46
T4 sequence (O76036 other isoform, or with tags, fused parts or gaps limits assumed): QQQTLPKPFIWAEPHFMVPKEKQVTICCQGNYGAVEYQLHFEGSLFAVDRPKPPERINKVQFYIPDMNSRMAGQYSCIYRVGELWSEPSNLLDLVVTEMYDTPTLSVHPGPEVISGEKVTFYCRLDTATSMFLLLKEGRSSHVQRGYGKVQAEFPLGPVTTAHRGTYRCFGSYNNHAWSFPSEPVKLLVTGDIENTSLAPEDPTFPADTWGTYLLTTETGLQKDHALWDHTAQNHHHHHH
Method: as §1, §2

[5] = biological target: T5, human CD32b (human FcγRIIB) (human, UniProt P31994 43-217, limits assumed); assay: SPR, fit Steady State Affinity, Exp No 1
T5 construct: also called HuFcyRIIb
T5 sequence (looked up): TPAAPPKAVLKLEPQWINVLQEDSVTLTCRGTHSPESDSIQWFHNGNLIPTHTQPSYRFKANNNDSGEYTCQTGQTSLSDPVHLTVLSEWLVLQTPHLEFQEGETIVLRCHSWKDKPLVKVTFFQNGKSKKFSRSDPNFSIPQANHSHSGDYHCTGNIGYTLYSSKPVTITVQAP

[6] = biological target: T6, human CD16b (human FcgRIIIB) (human, UniProt O75015 17-200, limits assumed); assay: SPR, fit Steady State Affinity, Exp No 1
T6 construct: also called HuFcyRIIIb
T6 sequence (O75015 17-200 limits assumed): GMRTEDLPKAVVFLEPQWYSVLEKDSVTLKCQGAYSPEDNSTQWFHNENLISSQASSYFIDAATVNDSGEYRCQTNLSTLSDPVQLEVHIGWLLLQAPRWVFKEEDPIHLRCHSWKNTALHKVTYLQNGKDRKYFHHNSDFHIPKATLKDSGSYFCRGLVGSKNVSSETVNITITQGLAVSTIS

cynomolgus CD32b = biological target: T7, cynomolgus CD32b (cynomolgus); assay: SPR, fit Steady State Affinity, Exp No 1
T7 construct: also called CyFcyRIIb

cynomolgus CD32a = biological target: T8, cynomolgus CD32a (cynomolgus); assay: SPR, fit Steady State Affinity, Exp No 1
T8 construct: also called CyFcyRIIa

recombinant human BCMA [7] = biological target: T1, recombinant human BCMA; assay: SPR (Biacore 8K), NKCE captured by anti-human Fc, antigen as analyte, 1:1 model; Experiment No 2
Method: as §1, §2

[8] = biological target: T2, recombinant cynomolgus NKp46 …; assay: as above
Method: as §1, §2

cyno BCMA (PPB-17990) [9] = biological target: T3, cyno BCMA (PPB-17990); assay: as above
Method: as §1, §2

[10] = biological target: T4, recombinant human NKp46 extracellular …; assay: as above
Method: as §1, §2

recombinant human BCMA [11] = biological target: T1, recombinant human BCMA; assay: SPR (Biacore 8K), NKCE captured by anti-human Fc, antigen as analyte, 1:1 model; Experiment No 1
Method: as §1, §2

[12] = biological target: T2, recombinant cynomolgus NKp46 …; assay: as above
Method: as §1, §2

cyno BCMA (PPB-17990) [13] = biological target: T3, cyno BCMA (PPB-17990); assay: as above
Method: as §1, §2

[14] = biological target: T4, recombinant human NKp46 extracellular …; assay: as above
Method: as §1, §2

[15] = biological target: T9, human NKp46 on NK cells purified from PBMC of healthy donors (human, UniProt O76036 22-304); assay: flow cytometry titration on resting human NK cells from healthy donors, detection with goat anti-human IgG Fcγ-PE, 4-parameter fit; NK cells also carry CD16a
T9 construct: whole, on cells; also called NKp46 on donor NK cells
T9 sequence (O76036 22-304): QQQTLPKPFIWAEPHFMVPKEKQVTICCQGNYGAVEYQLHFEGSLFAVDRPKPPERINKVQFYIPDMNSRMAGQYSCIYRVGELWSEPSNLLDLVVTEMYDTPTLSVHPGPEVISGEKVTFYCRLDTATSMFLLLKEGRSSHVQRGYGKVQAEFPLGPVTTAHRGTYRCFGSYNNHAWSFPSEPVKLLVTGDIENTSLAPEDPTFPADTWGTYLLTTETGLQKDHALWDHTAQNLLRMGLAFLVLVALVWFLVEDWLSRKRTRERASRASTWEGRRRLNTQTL
Method: After staining, cells were resuspended in BD Cellfix and analyzed by flow cytometry. Parameters were recorded and analysed with FlowJo software. Staining EC50 values were calculated with GraphPad prism using 4 parameter logistics non-linear regression model.

B1: NKp46-BCMA_Fc-ADE-DSB NKCE (bispecific antibody, human IgG1, kappa)
light: QTVVTQEPSLTVSPGGTVTLTCASSTGTVTPSNYANWVQQKPGQAFRGLIGDNNSRPPGTPARFSASLLGGKAALTLSGVQPEDEAEYYCALWFGNQWVFGGGTKLTVLGGGGSGGGGSDIQMTQSPSSLSASVGDRVTITCRASQDISNYLNWYQQKPGKAPKLLIYYTSRLHSGVPSRFSGSGSGTDFTFTISSLQPEDIATYFCQQGNTRPWTFGGGTKVEIKGGGGSGGGGSRTVAAPSVFIFPPSDEQLKSGTASVVCLLNNFYPREAKVQWKVDNALQSGNSQESVTEQDSKDSTYSLSSTLTLSKADYEKHKVYACEVTHQGLSSPVTKSFNRGEC
heavy: QVQLVQSGAEVKKPGSSVKVSCKASGYTFSDYVINWVRQAPGQGLEWMGEIYPGSGTNYYNEKFKAKATITADKSTSTAYMELSSLRSEDTAVYYCARRGRYGLYAMDYWGQGTTVTVSSQVQLVESGGGVVQPGRSLRLSCAASGFTFSNFGMHWVRQAPGRGLEWVAVIWSDETNRYYADSVKGRFTVSRDNVKSTVYLQMNSLISEDTAVYYCARDQQYCSSDSCFTWFDPWGQGTLVTVSSASTKGPSVFPLAPSSKSTSGGTAALGCLVKDYFPEPVTVSWNSGALTSGVHTFPAVLQSSGLYSLSSVVTVPSSSLGTQTYICNVNHKPSNTKVDKKVEPKSCDKTHTCPPCPAPELLAGPDVFLFPPKPKDTLMISRTPEVTCVVVDVSHEDPEVKFNWYVDGVEVHNAKTKPCEEQYNSTYRCVSVLTVLHQDWLNGKEYKCKVSNKALPAPEEKTISKAKGQPREPQVYTLPPCRDELTKNQVSLWCLVKGFYPSDIAVEWESNGQPENNYKTTPPVLDSDGSFFLYSKLTVDKSRWQQGNVFSCSVMHEALHNHYTQKSLSLSPG
chain: DKTHTCPPCPAPELLAGPDVFLFPPKPKDTLMISRTPEVTCVVVDVSHEDPEVKFNWYVDGVEVHNAKTKPCEEQYNSTYRCVSVLTVLHQDWLNGKEYKCKVSNKALPAPEEKTISKAKGQPREPQVCTLPPSRDELTKNQVSLSCAVKGFYPSDIAVEWESNGQPENNYKTTPPVLDSDGSFFLVSKLTVDKSRWQQGNVFSCSVMHEALHNRFTQKSLSLSPG
Kd (recombinant human BCMA [1]): 0.0002 µM | Kd [2]: 0.0169 µM | Kd (cyno BCMA (PPB-17990) [3]): 0.0003 µM | Kd [4]: 0.0125 µM | Kd [5]: 1.35 µM | Kd [6]: 1.26 µM | Kd (cynomolgus CD32b): 0.884 µM | Kd (cynomolgus CD32a): 1.35 µM | Kd (recombinant human BCMA [7]): 0.0002 µM | koff (recombinant human BCMA [7]): 6.9e-05 s⁻¹ | kon (recombinant human BCMA [7]): 320000 M⁻¹ s⁻¹ | Kd [8]: 0.0162 µM | koff [8]: 0.0034 s⁻¹ | kon [8]: 210000 M⁻¹ s⁻¹ | Kd (cyno BCMA (PPB-17990) [9]): 0.0003 µM | koff (cyno BCMA (PPB-17990) [9]): 5.8e-05 s⁻¹ | kon (cyno BCMA (PPB-17990) [9]): 180000 M⁻¹ s⁻¹ | Kd [10]: 0.0132 µM | koff [10]: 0.0018 s⁻¹ | kon [10]: 140000 M⁻¹ s⁻¹ | Kd (recombinant human BCMA [11]): 0.0002 µM | koff (recombinant human BCMA [11]): 6.1e-05 s⁻¹ | kon (recombinant human BCMA [11]): 280000 M⁻¹ s⁻¹ | Kd [12]: 0.0166 µM | koff [12]: 0.003 s⁻¹ | kon [12]: 210000 M⁻¹ s⁻¹ | Kd (cyno BCMA (PPB-17990) [13]): 0.0004 µM | koff (cyno BCMA (PPB-17990) [13]): 7.2e-05 s⁻¹ | kon (cyno BCMA (PPB-17990) [13]): 170000 M⁻¹ s⁻¹ | Kd [14]: 0.0118 µM | koff [14]: 0.0019 s⁻¹ | kon [14]: 160000 M⁻¹ s⁻¹ | EC50 [15]: 0.585 mg/L and 0.863 mg/L and 0.481 mg/L
